How the values were obtained:
[1] = biological target: human CD81 on CD81-expressing cells (Jurkat E6.1, human PBMC, Ramos) (human) (UniProt P60033); assay: flow cytometry, human PBMC
[2] = biological target: human CD81 on CD81-expressing cells (Jurkat E6.1, human PBMC, Ramos) (human) (UniProt P60033); assay: flow cytometry, Jurkat E6.1 cells
[3] = biological target: human CD81 on CD81-expressing cells (Jurkat E6.1, human PBMC, Ramos) (human) (UniProt P60033); assay: flow cytometry, Ramos cells, 1 µg/mL
[4] = biological target: human CD81 on CD81-expressing cells (Jurkat E6.1, human PBMC, Ramos) (human) (UniProt P60033); assay: flow cytometry, Jurkat cells, 1 µg/mL
[5] = biological target: human CD81 on CD81-expressing cells (Jurkat E6.1, human PBMC, Ramos) (human) (UniProt P60033); assay: flow cytometry, Ramos cells, 10 µg/mL
[6] = biological target: human CD81 on CD81-expressing cells (Jurkat E6.1, human PBMC, Ramos) (human) (UniProt P60033); assay: flow cytometry, Jurkat cells, 10 µg/mL
[7] = biological target: human CD81 on CD81-expressing cells (Jurkat E6.1, human PBMC, Ramos) (human) (UniProt P60033); assay: flow cytometry, Ramos cells, 0.1 µg/mL
[8] = biological target: human CD81 on CD81-expressing cells (Jurkat E6.1, human PBMC, Ramos) (human) (UniProt P60033); assay: flow cytometry, Jurkat cells, 0.1 µg/mL
[9] = biological target: human CD81 on CD81-expressing cells (Jurkat E6.1, human PBMC, Ramos) (human) (UniProt P60033); assay: flow cytometry, Ramos cells, 0.01 µg/mL
[10] = biological target: human CD81 on CD81-expressing cells (Jurkat E6.1, human PBMC, Ramos) (human) (UniProt P60033); assay: flow cytometry, Jurkat cells, 0.01 µg/mL

Chain of human CD81 on CD81-expressing cells (Jurkat E6.1, human PBMC, Ramos) (human) (P60033 whole entry): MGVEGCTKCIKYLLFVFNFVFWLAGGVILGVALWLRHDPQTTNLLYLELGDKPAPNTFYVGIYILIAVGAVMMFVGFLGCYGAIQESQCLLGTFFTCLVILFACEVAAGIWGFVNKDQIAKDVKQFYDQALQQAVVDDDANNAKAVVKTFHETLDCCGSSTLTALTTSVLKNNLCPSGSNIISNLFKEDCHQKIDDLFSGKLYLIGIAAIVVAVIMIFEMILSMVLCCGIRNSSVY

Substance | binding ratio to cells (%) [1] | binding ratio to cells (%) [2] | geometric mean FL2 [3] | geometric mean FL2 [4] | geometric mean FL2 [5] | geometric mean FL2 [6] | geometric mean FL2 [7] | geometric mean FL2 [8] | geometric mean FL2 [9] | geometric mean FL2 [10]
control human IgG4 (Acris) (antibody) | 1% | 1% | – | – | – | – | – | – | – | –
control human IgG (AbD Serotec) (antibody) | – | – | 5 | 4 | 8 | 8 | 4 | 4 | 4 | 4

Source: patent US20150139990A1
